Results on 1 substance are retold here after publication PMC6275156.

Usually stoichiometry N stands for a count of units in the complex or per binding partner.

This assay deals with BB2. The experiment in a line: SEC-MALS. (In general: In gel filtration, larger molecules generally elute earlier.)

Substance BB2 returned a stoichiometry N of 4.
